T1: human TIGIT (UniProt Q495A1 22-244)
T1 chain: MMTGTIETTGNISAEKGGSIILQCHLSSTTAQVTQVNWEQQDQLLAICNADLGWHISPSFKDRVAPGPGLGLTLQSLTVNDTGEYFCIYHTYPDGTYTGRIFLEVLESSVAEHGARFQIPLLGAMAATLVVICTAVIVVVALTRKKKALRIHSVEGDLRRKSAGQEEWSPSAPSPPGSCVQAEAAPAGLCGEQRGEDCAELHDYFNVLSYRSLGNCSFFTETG

T2: human CD112R (N81D)
T2 chain: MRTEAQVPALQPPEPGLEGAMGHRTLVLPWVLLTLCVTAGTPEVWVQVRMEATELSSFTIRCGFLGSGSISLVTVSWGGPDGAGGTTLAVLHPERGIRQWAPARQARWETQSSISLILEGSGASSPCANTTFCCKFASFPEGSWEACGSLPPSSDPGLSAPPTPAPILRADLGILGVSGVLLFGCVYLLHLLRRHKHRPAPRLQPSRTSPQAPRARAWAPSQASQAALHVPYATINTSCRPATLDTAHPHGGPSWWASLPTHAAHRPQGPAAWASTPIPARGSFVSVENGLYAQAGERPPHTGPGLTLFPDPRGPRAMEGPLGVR


Assays:
Experiment in all cases: Biacore SPR
[1] = molecular target: cynomolgus TIGIT
[2] = molecular target: T1, human TIGIT
[3] = molecular target: T2, human CD112R (N81D)
[4] = molecular target: 31B3.001

cynomolgus TIGIT, sequence (chain, as listed by the source): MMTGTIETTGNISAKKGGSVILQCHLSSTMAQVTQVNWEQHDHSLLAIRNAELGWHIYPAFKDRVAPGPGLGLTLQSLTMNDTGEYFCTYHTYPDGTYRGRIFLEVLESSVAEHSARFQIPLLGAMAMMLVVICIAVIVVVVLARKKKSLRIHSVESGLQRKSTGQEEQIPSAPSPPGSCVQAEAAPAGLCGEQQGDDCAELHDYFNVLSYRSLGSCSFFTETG

| Kd [1] | Kd [2] | Kd [3] | Kd [4] | Binder |
| --- | --- | --- | --- | --- |
| 34.7 nM | 0.0523 nM | – | – | 66H9.009 (antibody, V domains shown) VH: QVQLQESGPGLVKPSETLSLTCTVSGGSISSVYFYWNWIRQPPGKGLEWIGYIYYSGGTYYNPSLRSRVTISVDTSKNQFSLKLNSVTAADTAVYYCARGSIAAGGGYFYYNDMDVWGQGTTVTVSS VL: EIVLTQSPDFQSVTPKEKVAITCRASQSIGSSLHWYQQKPDQSPKPLIKYVSQSFSGVPSRFSGSGSGTDFTLTINSLEAEDAATYYCHQSSSLPLTFGGGTKVEIKR |
| 13 nM | 0.0519 nM | – | – | 43B7.002.015 (antibody, V domains shown) VH: QVQLQESGPGLVKPSETLSLTCTVSGGSISSGGYYWSWIRQHPGKGLEWIGYIYYRGGTYYNPSLRSRVTMSVDTSKNQFSLRLSSVTAADTAVYYCARTIFGVIILDNWGQGTPVTVSS VL: DIQMTQSPSSLSASVGDRVTITCRSSQSISSYLNWYQQKPGRAPKLLIYAASSLQSGVPSRFSGSGSGTDFTLTISSLQPEDFASYYCQQSYTTPPTFGGGTKVEIKR |
| – | – | 0.126 nM | – | 29E10 (antibody, V domains shown) VH: EVQLVESGGGLVQPGGSLRLSCAASGFTFRNYDMHWVRQVPGKGLEWVSDIGNSGETYYLGSVKGRFTISRENAKNSLYLQMNSLRAGDTAVYYCVREEFGYGMDVWGQGTTVTVSS VL: DIQMTQSPSSLSASVGDRVTITCRASQGIRNDLGWYQQKPGKAPKRLIYAASSLQSGVPSRFSGSGSGTEFTLTISSLQPEDFATYYCLQHNSYPLTFGGGTKVEIKR |
| – | – | 0.0506 nM | – | 24F1 (antibody, V domains shown) VH: EVQLVESGGGLVQPGGSLRLSCAASGFTFSRDDMHWVRQATGKGLEWVAGIDNAGDTYYPGSVKGRFTISRENAKNSLYLQMNSLRAGDTAIYYCAREGQWPYGMDVWGQGTTVTVSS VL: DIQMTQSPSSLSASVGDRVTITCRASQGIRNDLGWYQQKPGKAPKRLIYSASSLQSGVSSRFSGSGSGTEFTLTISSLQPEDFATYYCLQSNSYPLTFGGGTKVEIKR |
| – | – | 0.25 nM | – | 1E1.016 (antibody, V domains shown) VH: QVQLVQSGAEVKKPGASVKVSCKASGYTFTDYYIYWVRQAPGQGLEWMGWINPNAGGTNYAQKFQGRVTMTRDTSISTAYIELSRLRSDDTAVYYCAREDNFNGMDVWGQGTTVTVSS VL: DIQMTQSPSSLSASVGDRVTITCRASQGIRNDLGWYQQKPGKAPKRLIYAASSLQSGVPSRFSGSGSGTEFTLTISSLQPEDFATYYCLQLNAYPLTFGGGTKVEIKR |
| – | – | 0.0594 nM | – | 24F1.001 (antibody, V domains shown) VH: EVQLVESGGGLVQPGGSLRLSCAASGFTFSRDDMHWVRQATGKGLEWVAGIDNAGETYYPGSVKGRFTISRENAKNSLYLQMNSLRAGDTAIYYCAREGQWPYGMDVWGQGTTVTVSS VL: DIQMTQSPSSLSASVGDRVTITCRASQGIRNDLGWYQQKPGKAPKRLIYSASSLQSGVSSRFSGSGSGTEFTLTISSLQPEDFATYYCLQSNSYPLTFGGGTKVEIKR |
| – | – | – | 2.29 nM | human CD112R (receptor) TPEVWVQVRMEATELSSFTIRCGFLGSGSISLVTVSWGGPNGAGGTTLAVLHPERGIRQWAPARQARWETQSSISLILEGSGASSPCANTTFCCKFASFPEGSWEACGSLPPSSDPGLSAPPTPAPILRADLAGILGVSGVLLFGCVYLLHLLRRHKHRPAPRLQPSRTSPQAPRARAWAPSQASQAALHVPYATINTSCRPATLDTAHPHGGPSWWASLPTHAAHRPQGPAAWASTPIPARGSFVSVENGLYAQAGERPPHTGPGLTLFPDPRGPRAMEGPLGVR |
| 25 nM | 0.228 nM | – | – | 55G7.041 (antibody, V domains shown) VH: EVQLVESGGGVVQPGGSLRLSCAASGFTFSSYGMHWVRQAPGKGLEWVALIWFDESNIYYADAVKGRFTISRDNAKNTLYLQMNSLRAEDTAVYFCARGYDLLTGYYNFDFWGQGTLVTVSS VL: QAGLTQPPSVSKGLRQTATLTCTGNANNVGNRGAAWLQQHQGHPPKLLSYRNNNRPSGISERLSASRSGNTASLTITGLQPEDEADYYCSAWDSSLSAWVFGGGTKLTVLG |
| 9.39 nM | 0.283 nM | – | – | 58A7.003.008 (antibody, V domains shown) VH: QVQLQESGPGLVKPSETLSLTCTVSGGSISSGGYYWNWIRQPPGKGLEWIGYIYYSGSTFYNPSLKSRVTISVDTSKNQFSLKLSSVTAADTAVYYCARAPRYNWNYGWFDPWGQGTLVTVSS VL: EIVLTQSPGTLSLSPGERATLSCRASQQVSSTYLAWYQQKPGQAPRLLFYGASSRATGIPDRFSRSGSGTDFTLTISRLEPEDFAVYYCQQYDVSPWTFGQGTKVEIKR |

— patent US20220017616A1 (published 2022)
